Laboratory results from publication PMC10646254.

How the values were obtained:
SP1 = SP1 (UniProt P08047); assay: co-immunoprecipitation, western blot; settings: reference: wild type; sites T361,T366,S381,S387
SP3 = SP3 (UniProt Q02447); assay: co-immunoprecipitation, western blot; settings: reference: wild type; sites T361,T366,S381,S387

Question: What does the source list for “ELK4 (from UniProt P28324) 4MA (T361/T366/S381/S387A)”?
Answer: binding against the reference (SP1): weaker; binding against the reference (SP3): weaker
